T1: human GIP receptor (human) (UniProt P48546)
T1 sequence (looked up): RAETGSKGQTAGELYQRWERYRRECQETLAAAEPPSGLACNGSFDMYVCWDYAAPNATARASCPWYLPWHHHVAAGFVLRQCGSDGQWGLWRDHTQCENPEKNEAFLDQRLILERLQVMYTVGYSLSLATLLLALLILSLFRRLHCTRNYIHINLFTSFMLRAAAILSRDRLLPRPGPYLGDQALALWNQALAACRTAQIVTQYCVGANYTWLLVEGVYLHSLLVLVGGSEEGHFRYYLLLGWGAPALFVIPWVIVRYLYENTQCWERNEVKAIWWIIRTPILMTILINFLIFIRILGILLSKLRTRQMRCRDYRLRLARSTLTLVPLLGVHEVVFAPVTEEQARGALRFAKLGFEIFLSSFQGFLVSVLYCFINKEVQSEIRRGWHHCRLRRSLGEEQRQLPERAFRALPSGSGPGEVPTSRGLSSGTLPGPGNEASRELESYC

T2: human GIP receptor (human, UniProt P48546 22-466)
T2 sequence (looked up): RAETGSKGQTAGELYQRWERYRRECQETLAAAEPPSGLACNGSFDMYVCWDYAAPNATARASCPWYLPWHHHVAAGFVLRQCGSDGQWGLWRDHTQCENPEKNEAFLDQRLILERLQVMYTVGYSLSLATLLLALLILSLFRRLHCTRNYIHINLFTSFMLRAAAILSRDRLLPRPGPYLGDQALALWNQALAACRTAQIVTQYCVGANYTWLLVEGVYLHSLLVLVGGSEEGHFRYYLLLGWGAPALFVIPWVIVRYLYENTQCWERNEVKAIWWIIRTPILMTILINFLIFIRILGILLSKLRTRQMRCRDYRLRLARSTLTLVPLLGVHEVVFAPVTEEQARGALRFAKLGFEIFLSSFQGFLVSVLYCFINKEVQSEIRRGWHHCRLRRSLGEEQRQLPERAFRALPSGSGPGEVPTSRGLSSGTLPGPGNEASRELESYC

T3: human GIP receptor (human, UniProt P48546 22-466)
T3 sequence (looked up): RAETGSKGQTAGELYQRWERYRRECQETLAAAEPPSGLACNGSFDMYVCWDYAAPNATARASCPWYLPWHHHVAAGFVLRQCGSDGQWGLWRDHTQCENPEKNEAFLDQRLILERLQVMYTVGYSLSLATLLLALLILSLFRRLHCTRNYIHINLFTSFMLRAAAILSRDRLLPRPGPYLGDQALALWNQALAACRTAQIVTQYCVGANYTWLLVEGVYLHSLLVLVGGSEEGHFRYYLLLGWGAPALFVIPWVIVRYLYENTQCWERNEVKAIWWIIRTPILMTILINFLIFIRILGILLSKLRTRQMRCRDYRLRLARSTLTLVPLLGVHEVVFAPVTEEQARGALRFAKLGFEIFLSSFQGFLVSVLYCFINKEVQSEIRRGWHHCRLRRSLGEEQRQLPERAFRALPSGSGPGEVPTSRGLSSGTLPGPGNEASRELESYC


Columns and labels:
Experiment in all cases: cell-based or functional assay
[1] = molecular target: human glucagon receptor (human) (UniProt P47871)
hGLP-1R = hGLP-1R (Homo sapiens, UniProt P43220)
[2] = molecular target: T1, human GIP receptor (human)
human GLP-1 receptor [3] = molecular target: human GLP-1 receptor (human, UniProt P43220 24-463)
human glucagon receptor [4] = molecular target: human glucagon receptor (human, UniProt P47871 26-477)
human GIP receptor [5] = molecular target: T2, human GIP receptor
human GIP receptor [6] = molecular target: T3, human GIP receptor; remark: listed apart in the source
human glucagon receptor [7] = molecular target: human glucagon receptor (human, UniProt P47871 26-477); remark: listed apart in the source
Target sequence in this assay (P47871 26-477): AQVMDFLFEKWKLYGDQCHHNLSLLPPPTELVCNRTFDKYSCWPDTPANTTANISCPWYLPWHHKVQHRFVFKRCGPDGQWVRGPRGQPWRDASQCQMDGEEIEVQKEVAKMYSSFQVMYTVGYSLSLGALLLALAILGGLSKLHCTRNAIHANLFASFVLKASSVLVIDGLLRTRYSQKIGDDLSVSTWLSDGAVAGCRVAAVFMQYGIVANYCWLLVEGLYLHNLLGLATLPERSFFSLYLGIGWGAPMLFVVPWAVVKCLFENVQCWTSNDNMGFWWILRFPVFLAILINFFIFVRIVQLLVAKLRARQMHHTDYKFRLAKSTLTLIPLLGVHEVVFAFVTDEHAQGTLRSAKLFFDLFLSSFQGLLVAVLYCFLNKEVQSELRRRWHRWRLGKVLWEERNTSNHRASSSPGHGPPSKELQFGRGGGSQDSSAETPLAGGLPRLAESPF

human GLP-1 receptor [8] = molecular target: human GLP-1 receptor (human, UniProt P43220 24-463); remark: listed apart in the source

Binder	cAMP EC50 [1]	cAMP EC50 (hGLP-1R)	cAMP Emax (hGLP-1R)	cAMP EC50 [2]	cAMP Emax [2]	cAMP EC50 (1.0% HSA) (human GLP-1 receptor [3])	cAMP Emax (1.0% HSA) (human GLP-1 receptor [3])	cAMP EC50 (1.0% HSA) (human glucagon receptor [4])	cAMP EC50 (1.0% HSA) (human GIP receptor [5])	cAMP Emax (1.0% HSA) (human GIP receptor [5])	cAMP EC50 (1.0% HSA) (human GIP receptor [6])	cAMP EC50 (1.0% HSA) (human glucagon receptor [7])	cAMP EC50 (1.0% HSA) (human GLP-1 receptor [8])	cAMP Emax (1.0% HSA) (human GIP receptor [6])	cAMP Emax (1.0% HSA) (human GLP-1 receptor [8])
YXEGTXTSDXXIXLDXIAQXKFIXXLIEGGPSSGAPPPSK (Y-Aib-EGT-αMeF(2F)-TSD-4Pal-Aib-I-αMeL-LD-Orn-IAQ-Aib-K((2-[2-(2-Amino-ethoxy)-ethoxy]-acetyl)-(γ-Glu)-CO-(CH2)12-CO2H)FI-(D-Glu)-αMeY-LIEGGPSSGAPPPSK((2-[2-(2-Amino-ethoxy)-ethoxy]-acetyl)-(γ-Glu)-CO-(CH2)12-CO2H)-NH2) [Example 341]	> 9950 nM	0.329 nM	99.9%	0.0127 nM	91.4%	95.8 nM	113%	> 9950 nM	5.74 nM	83.6%	–	–	–	–	–
YXEGTXTSDXXIXLDXIAQXKFIXXLIKGGPSSGAPPPS (Y-Aib-EGT-αMeF(2F)-TSD-4Pal-Aib-I-αMeL-LD-Orn-IAQ-Aib-K(2-[2-(2-Amino-ethoxy)-ethoxy]-acetyl)2-(γ-Glu)-(11-(4-carboxyphenoxy)undecanoyl)FI-(D-Glu)-αMeY-LIK((2-[2-(2-Amino-ethoxy)-ethoxy]-acetyl)2-(γ-Glu)-(11-(4-carboxyphenoxy)undecanoyl)GGPSSGAPPPS-NH2)) [Example 331]	> 9950 nM	0.436 nM	99.6%	0.0113 nM	101%	223 nM	114%	> 9950 nM	8.31 nM	–	–	–	–	–	–
YXEGTXTSDXXIXLDXKAQXXFIXXLIKGGPSSGAPPPS (Y-Aib-EGT-αMeF(2F)-TSD-4Pal-Aib-I-αMeL-LD-Orn-K((2-[2-(2-Amino-ethoxy)-ethoxy]-acetyl)2-(α-Glu)-(10-(4-carboxyphenoxy)decanoyl))AQ-Aib-Om-FI-(D-Glu)-αMeY-LIK((2-[2-(2-Amino-ethoxy)-ethoxy]-acetyl)2-(γ-Glu)-(10-(4-carboxyphenoxy)decanoyl))GGPSSGAPPPS-NH2) [Example 351]	> 9950 nM	0.397 nM	100%	0.0185 nM	102%	5.8 nM	91%	> 9950 nM	0.722 nM	67.9%	–	–	–	–	–
YXEGTXTSDYXIXLDXKAQXXFIXXLIKGGPSSGAPPPS (Y-Aib-EGT-αMeF(2F)-TSDY-Aib-I-αMeL-LD-Orn-K((2-[2-(2-Amino-ethoxy)-ethoxy]-acetyl)2-(γ-Glu)-(10-(4-carboxyphenoxy)decanoyl))AQ-Aib-Om-FI-(D-Glu)-αMeY-LIK((2-[2-(2-Amino-ethoxy)-ethoxy]-acetyl)2-(γ-Glu)-(10-(4-carboxyphenoxy)decanoyl))GGPSSGAPPPS-NH2) [Example 352]	> 9950 nM	0.262 nM	99.5%	0.0106 nM	98.3%	5.46 nM	93.5%	> 9950 nM	0.277 nM	71.3%	–	–	–	–	–
YXEGTXTSDYXIXLDXIAQXEFIKXLIKGGPSSGAPPPS (Y-Aib-EGT-αMeF(2F)-TSDY-Aib-I-αMeL-LD-Orn-IAQ-Aib-EFIK((2-[2-(2-Amino-ethoxy)-ethoxy]-acetyl)2-(γ-Glu)-(2-[2-(2-Amino-ethoxy)-ethoxy]-acetyl)-CO-(CH2)12-CO2H)-αMeY-LIK((2-[2-(2-Amino-ethoxy)-ethoxy]-acetyl)2-(γ-Glu)-(2-[2-(2-Amino-ethoxy)-ethoxy]-acetyl)-CO-(CH2)12-CO2H)GGPSSGAPPPS-NH2) [Example 363]	–	–	–	–	–	–	–	–	–	–	0.976 nM	> 9950 nM	14.3 nM	–	–
YXEGTXTSDXXIXLDXQAQXXFIKXLIKGGPSSGAPPPS (Y-Aib-EGT-αMeF(2F)-TSD-4Pal-Aib-I-αMeL-LD-Orn-QAQ-Aib-Orn-FIK((2-[2-(2-Amino-ethoxy)-ethoxy]-acetyl)2-(γ-Glu)-CO-(CH2)12-CO2H)-αMeY-LIK((2-[2-(2-Amino-ethoxy)-ethoxy]-acetyl)2-(γ-Glu)-CO-(CH2)12-CO2H)GGPSSGAPPPS-NH2) [Example 391]	–	–	–	–	–	–	–	–	–	–	0.266 nM	> 9950 nM	2.62 nM	–	–
YXEGTXTSDYXIXLDXIAQXEFIKXLIKGGPSSGAPPPS (Y-Aib-EGT-αMeF(2F)-TSDY-Aib-I-αMeL-LD-Orn-IAQ-Aib-EFIK((2-[2-(2-Amino-ethoxy)-ethoxy]-acetyl)-(γ-Glu)-(2-[2-(2-Amino-ethoxy)-ethoxy]-acetyl)2-CO-(CH2)12-CO2H)-αMeY-LIK((2-[2-(2-Amino-ethoxy)-ethoxy]-acetyl)-(γ-Glu)-(2-[2-(2-Amino-ethoxy)-ethoxy]-acetyl)2-CO-(CH2)12-CO2H)GGPSSGAPPPS-NH2) [Example 364]	–	–	–	–	–	–	–	–	–	–	0.895 nM	> 9950 nM	13 nM	–	–
YXEGTXTSDXXIXLDXKAQXKFIXXLIEGGPSSGAPPPS (Y-Aib-EGT-αMeF(2F)-TSD-4Pal-Aib-I-αMeL-LD-Orn-K((2-[2-(2-Amino-ethoxy)-ethoxy]-acetyl)-(γ-Glu)-CO-(CH2)12-CO2H)AQ-Aib-K((2-[2-(2-Amino-ethoxy)-ethoxy]-acetyl)-(γ-Glu)-CO-(CH2)12-CO2H)FI-(D-Glu)-αMeY-LIEGGPSSGAPPPS-NH2) [Example 336]	> 10100 nM	0.338 nM	107%	0.0136 nM	109%	47 nM	103%	> 10100 nM	2.92 nM	–	–	–	–	–	–
YXEGTXTSDYXIXLDXQAQXXFIKXLIKGGPSSGAPPPS (Y-Aib-EGT-αMeF(2F)-TSDY-Aib-I-αMeL-LD-Orn-QAQ-Aib-Orn-FIK((2-[2-(2-Amino-ethoxy)-ethoxy]-acetyl)2-(γ-Glu)-CO-(CH2)12-CO2H)-αMeY-LIK((2-[2-(2-Amino-ethoxy)-ethoxy]-acetyl)2-(γ-Glu)-CO-(CH2)12-CO2H)GGPSSGAPPPS-NH2) [Example 401]	–	–	–	–	–	–	–	–	–	–	0.434 nM	> 9950 nM	5.39 nM	83%	107%
YXEGTXTSDYXIXLDXIAQXEFIKXLIKGGPSSGAPPPS (Y-Aib-EGT-αMeF(2F)-TSDY-Aib-I-αMeL-LD-Orn-IAQ-Aib-EFIK((2-[2-(2-Amino-ethoxy)-ethoxy]-acetyl)-(γ-Glu)-(2-[2-(2-Amino-ethoxy)-ethoxy]-acetyl)-CO-(CH2)12-CO2H)-αMeY-LIK((2-[2-(2-Amino-ethoxy)-ethoxy]-acetyl)-(γ-Glu)-(2-[2-(2-Amino-ethoxy)-ethoxy]-acetyl)-CO-(CH2)12-CO2H)GGPSSGAPPPS-NH2) [Example 365]	–	–	–	–	–	–	–	–	–	–	1.93 nM	> 9950 nM	22.3 nM	–	91%

— patent US20230265151A1, “GIP/GLP1 CO-AGONIST COMPOUNDS” (priority 2020, published 2023)
